First the molecules themselves.
B1: FGF10: FGF-10, also known as keratinocyte growth factor (KGF2) (protein, UniProt O15520 38-208, looked up)
Fibroblast growth factor 10: QALGQDMVSPEATNSSSSSFSSPSSAGRHVRSYNHLQGDVRWRKLFSFTKYFLKIEKNGKVSGTKKENCPYSILEITSVEIGVVAVKAINSNYYLAMNKKGKLYGSKEFNNDCKLKERIEENGYNTYASFNWQHNGRQMYVALNGKGAPRRGQKTRRKNTSAHFLPMVVHS
B2: Wnt: Wnt-3a growth factor (protein, UniProt P56704 19-352, looked up)
Protein Wnt-3a: SYPIWWSLAVGPQYSSLGSQPILCASIPGLVPKQLRFCRNYVEIMPSVAEGIKIGIQECQHQFRGRRWNCTTVHDSLAIFGPVLDKATRESAFVHAIASAGVAFAVTRSCAEGTAAICGCSSRHQGSPGKGWKWGGCSEDIEFGGMVSREFADARENRPDARSAMNRHNNEAGRQAIASHMHLKCKCHGLSGSCEVKTCWWSQPDFRAIGDFLKDKYDSASEMVVEKHRESRGWVETLRPRYTYFKVPTERDLVYYEASPNFCEPNPETGSFGTRDRTCNVSSHGIDGCDLLCCGRGHNARAERRREKCRCVFHWCCYVSCQECTRVYDVHTCK
B3: BMP-6: bone morphogenesis protein-6 (protein, UniProt P22004 375-513, looked up)
Bone morphogenetic protein 6: SASSRRRQQSRNRSTQSQDVARVSSASDYNSSELKTACRKHELYVSFQDLGWQDWIIAPKGYAANYCDGECSFPLNAHMNATNHAIVQTLVHLMNPEYVPKPCCAPTKLNAISVLYFDDNSNVILKKYRNMVVRACGCH
B4: Eph: member of the Ephrin family, binds to the Eph receptor (protein, UniProt P52797 23-214, looked up)
Ephrin-A3: QGPGGALGNRHAVYWNSSNQHLRREGYTVQVNVNDYLDIYCPHYNSSGVGPGAGPGPGGGAEQYVLYMVSRNGYRTCNASQGFKRWECNRPHAPHSPIKFSEKFQRYSAFSLGYEFHAGHEYYYISTPTHNLHWKCLRMKVFVCCASTSHSGEKPVPTLPQFTMGPNVKINVLEDFEGENPQVPKLEKSISG
B5: Nog: secreted polypeptide noggin, binds and inactivates TGF-beta superfamily signaling proteins (protein, UniProt Q13253 28-232, looked up)
Noggin: QHYLHIRPAPSDNLPLVDLIEHPDPIFDPKEKDLNETLLRSLLGGHYDPGFMATSPPEDRPGGGGGAAGGAEDLAELDQLLRQRPSGAMPSEIKGLEFSEGLAQGKKQRLSKKLRRKLQMWLWSQTFCPVLYAWNDLGSRFWPRYVKVGSCFSKRSCSVPEGMVCKPSKSVHLTVLRWRCQRRGGQRCGWIPIQYPIISECKCSC

Here are results for five molecules from patent US20110306546A1, “COMPOSITIONS FOR INCREASING HAIR GROWTH AND DECREASING HAIR LOSS” (ALVI ARMANI GENOMICS INC., priority 2010, published 2011).

The assay has as its system Hair follicles (HF). As to the kind of experiment: Hair follicle (HF) explant growth assay. In kind it is cell-based, human. As to conditions: HF elongation after 7-8 days; 20 ng/ml of each growth factor, hypoxanthine 2 μM; mean of 6-8 independent experiments. On the procedure: Hair follicles (HF) were extracted from the occipital area of 6-8 individuals with hair loss. The HFs were processed to equivalent lengths and cultured in William's E medium supplemented with 100 units/ml penicillin G, 100 μg/ml streptomycin, 0.25 μg/ml amphotericin B, […], 1 ng/ml hydrocortisone; basic medium or control medium or basic medium supplemented with 20 ng/ml of each of IGF-1, FGF-2, PDGF, Wnt-3A (Wnt), Noggin (Nog), Ephrin A3 (Eph), SHH and BMP-6 as well as hypoxanthine (Hyx) at 2 μM final concentration. The “GF10 cocktail” or “GF10” includes all nine growth factors and hypoxanthine while the “GF7 cocktail” or “GF7” contains six growth factors (all growth factors of GF10 except for FGF-10, Eph and SHH) and hypoxanthine. Growth promotion was measured as elongation of the HF at the end of 7-8 days. All growth factors and hypoxanthine promoted growth individually and in combination (FIG. 1 and Table 1).
B1: the “Increase in growth (% control) Mean” value stood at 48.55 % control. Under B2 stands 104.817 % control; under B3, 46.44 % control; under B4, 57.61 % control. As for B5, the figure is 51.45 % control.
